Laboratory results: patent US20190023739A1 (TOKUSHIMA UNIVERSITY, published 2019)

Target: T1, His-tagged recombinant PHB2 (UniProt Q99623 1-299, limits assumed)
T1 construct: also called prohibitin 2; REA; not shown: His tag
Assay: surface plasmon resonance (BiAcore) interaction analysis

T1 sequence (Q99623 whole entry): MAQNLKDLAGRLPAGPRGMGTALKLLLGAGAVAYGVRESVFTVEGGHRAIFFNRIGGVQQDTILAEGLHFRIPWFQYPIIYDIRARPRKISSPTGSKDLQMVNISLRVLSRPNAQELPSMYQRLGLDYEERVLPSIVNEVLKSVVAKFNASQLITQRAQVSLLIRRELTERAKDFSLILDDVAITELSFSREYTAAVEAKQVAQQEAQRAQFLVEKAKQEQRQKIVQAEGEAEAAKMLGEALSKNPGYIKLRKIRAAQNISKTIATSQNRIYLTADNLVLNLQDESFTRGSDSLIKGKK

B1: 11R-ERAP (11R-GGG-QMLSDLTLQLRQR) (peptide)
peptide: RRRRRRRRRRRGGGQMLSDLTLQLRQR
notes: Unstapled control peptide, synthesized as in Yoshimaru et al. 2013; also called dominant negative peptide
Question: Which Kd does the source give for B1 here?
Answer: 12.8 µM
